Experimental data published in US6613506B1, “Compositions and methods for inhibiting human immunodeficiency virus infection by down-regulating human cellular genes” (Subsidiary No. 3, Inc., priority 2000, dated 2003).

B1: CF-313: GSE, SEQ ID NO:13, sense; human protein tyrosine phosphatase gene (nucleic acid, listed as Homo sapiens)
sense: CATTTTGTTACATAAGGATGACTTTTTTATACAATGGAATAAATTATGGCATTTCTATTGAAATTTCAACGCTTTTGTTTCTTTGGCAACCACAC
B2: CF-317: GSE, SEQ ID NO:17, antisense; human phosphatidylinositol 3-kinase gene (nucleic acid, listed as Homo sapiens)
antisense: CCAAGCTTCCTATCTTAAGCTGGGCGTTGATATCCAGGTCACAACTATAGATGTAGTGAAACTTCTCTGCTTCCCCCATCGCACCGTCTGCAAAGGTACCACC
B3: CF-210: GSE, SEQ ID NO:14, sense; herpesvirus-associated ubiquitin-specific protease gene (nucleic acid, listed as Homo sapiens)
sense: GCATTACAAAGAGTGTTCTATGAATTACAGCATAGTGATAAACCTGTAGGAACAAAAAAGTTAACAAAGTCATTTGGGTGGGAAACTTTAGATAGCTTCATGCAACATGATGTT
B4: CF-280: GSE, SEQ ID NO:20; portion of an unknown human cellular gene (nucleic acid, listed as Homo sapiens)
DNA: GTGCCGTATGAATATACAAAATAATGGCATCAGGGATCCCTGTGCTCATTCACATAGCTAGGGACAACAGGATTTCATCTCCAGGAAACTCAGTAGTATACTTTTGTGACTTCTCTCTTTAAGCACCAAAGCATACTTTCAGGGAAAAACAAAAAAGAGATTAAAAATGTAAAGAATTCTTTCATGCTGCTTGGAGAGGTGAGGGAAGGTAGCCCACTGAAAGTGACAGAGAA
B5: CF-311: GSE, SEQ ID NO:12, antisense; human protein tyrosine phosphatase gene (nucleic acid, listed as Homo sapiens)
antisense: GGGGGCTCTGTTTGGTGGTCTCTCTAGCTGCACTGGTCTATCAAGCTGTTGGCTGGTCTCTCTCTCTGGCTGGGGATC
B6: CF-273: GSE, SEQ ID NO:11, sense; eukaryotic translation initiation factor 3 gene (nucleic acid, listed as Homo sapiens)
sense: GCTCGTCAGTGTCCACCCCTCCTCGCAACTCCAGGCGCTCCTTTTTCTGCTCCATATAGAGCTCCTGGGCCATTTTCCGGTACTTCCGGAAATCTTCCATCATGGTGCGCCTTC
B7: CF-302: GSE, SEQ ID NO:16, antisense; human CD44 gene (nucleic acid, listed as Homo sapiens)
antisense: GATCCCTGGGCGCGGGGCAGGGGCCGGCGGAGGACGGGACGAGGATGGCGGACCGAACCTGGCAGAGGCTGGG
B8: CF-286: GSE, SEQ ID NO:18, sense; human elongation factor-1α gene (nucleic acid, listed as Homo sapiens)
sense: CAGTTGGGGTGGGTGTCATCAAAGCAGTGGACAAGAAGGCTGCTGGAGCTGGCAAGGTCACCAAGTCTGCCCAGAAAGCTCAGAAGGCTAAATGAATATTATCCCTAATACCTGCCACCCCACTCTTAATCAGTGGTGGAAGAAC
B9: CF-266: GSE, SEQ ID NO:15, antisense; human eIF4B gene (nucleic acid, listed as Homo sapiens)
antisense: GCCGTTCTTCTACTTCTCTTTCTCAAGCAGCAGTGTCAACAGGCTTTGCCCCTCCAAAGATAGAAGCAGCTCGAGTGGACTGGGAGGTACTAGCAGA
B10: CF-531: GSE, SEQ ID NO:47, antisense; cell adhesion molecule L1 gene (nucleic acid, listed as Homo sapiens)
antisense: CTGGGTCCCCAAGGAGGGCCAGTGCAACTTCAGGTTCCATATCTTGTTCAAAGCCTTGGGAGAAGAGAAGGGTGGGGCTTCCCTTTCGC
modifications: chemistry not fully specified
notes: cell adhesion molecule L1 gene
B11: CF-545: GSE, SEQ ID NO:49, antisense; U-snRNP associated cyclophilin gene (nucleic acid, listed as Homo sapiens)
antisense: CTTCTTGGTGGTGTTCTTGAGTAAGATAATCTGGACTGGCCCCCGTCTTTGCTTCCCTGCCTGCTGCTGCCCCATTTGATCAAGAGACCATGGAAGTGTCAGAGATTCAGAATCCAAGATTGTCTTTAAGTTTTCAACTGTAAATAAAGTTTTTTTGTATGCGTAAAAAAAGCTCGTGCCT
B12: CF-529: GSE, SEQ ID NO:45, antisense; importin beta subunit gene (nucleic acid, listed as Homo sapiens)
antisense: GGAGTGTGCACGGATGCTGAATGTTTGGGAATGAGAGGATGAGTGAGTGAGGCTTGAAAACACACCACATTGAAAATCCTGCCACAGCAGCAGCCGCAGCCGCCAACAGCAGCGCTGTTAGTGAGCTAAGTAAGC
B13: CF-204: GSE, SEQ ID NO:9, antisense; human calnexin gene (nucleic acid, listed as Homo sapiens)
antisense: GGTTGTCAATCACAGGTCGCCAGGAGACACCACATCCAGGAGCTGACTCACATCTAGGGTTGGCAATCTGAGGAGCCTCCCATTCTCCATCCATGTCTTCATCCCAA
B14: CF-004: GSE, SEQ ID NO:7, sense; human 2-oxoglutarate dehydrogenase gene (nucleic acid, listed as Homo sapiens)
sense: GCGCAAAGCACGCGACATGGTGGGGCAGGTGGCCATCACAAGGATTGAGCAGCTGTCGCCATTCCCCTTTGACCTCCTGCTGAAGGAGGTGCAGAAGTACCCCAA

tested on: HIV-1IIIB; assay: Selection of GSEs from HeLa cell library using productive infection of CEM-ss cells; assay type: cell-based
Protocol: Additionally, a normalized RFE library made from HeLa cells was transferred into CEM-ss cells and the neo resistant population was infected with TCID50 of 3000/10^6 cells of HIV-1IIIB. This RFE library was represented by 50×10^6 independent recombinant clones. Four and seven days after infection, a purified anti-CD4 monoclonal antibody, L77 (available from Becton Dickinson), was added at 5 Φg/mL to prevent syncytia formation. Syncytia formation is thought to be prevented by blocking the interaction between gp120 expressed on the surface of an infected cell and CD4 on the surface of an uninfected cell. […] At 10-12 days after infection, CD4^+, p24^− cell population representing uninfected cells were sorted. Genomic DNA from the CD4^+, p24^− cells was purified and used for PCR amplification of inserts with the vector-derived primers. The amplified mixture was digested with EcoRI and BamHI and cloned back into the retroviral vector. The selection was repeated for additional rounds.
The selection of GSEs from HeLa cell library using productive infection of CEM-ss cells isolated […] additional nucleic acid molecules which have substantial sequence identity with other cellular genes.
The selection of GSEs from a HeLa cell library using productive infection of CEM-ss cells isolated 21 additional nucleic acid molecules which have substantial sequence identity with other cellular genes. […] The complement of SEQ ID NO:25 is represented by SEQ ID NO:26. […] The complement of SEQ ID NO:27 is represented by SEQ ID NO:28. […] The complement of SEQ ID NO:29 is represented by SEQ ID NO:30. […] The complement of SEQ ID NO:31 is represented by SEQ ID NO:32. […] The complement of SEQ ID NO:33 is represented by SEQ ID NO:34. […] The complement of SEQ ID NO:35 is represented by SEQ ID NO:36. […] The complement of SEQ ID NO:37 is represented by SEQ ID NO:38. […] The complement of SEQ ID NO:39 is represented by SEQ ID NO:40. […] The complement of SEQ ID NO:41 is represented by SEQ ID NO:42. […] The complement of SEQ ID NO:43 is represented by SEQ ID NO:44. […] The complement of SEQ ID NO:45 is represented by SEQ ID NO:46. […] The complement of SEQ ID NO:47 is represented by SEQ ID NO:48. […] The complement of SEQ ID NO:49 is represented by SEQ ID NO:50. […] The complement of SEQ ID NO:51 is represented by SEQ ID NO:52. […] The complement of SEQ ID NO:53 is represented by SEQ ID NO:54. […] The complement of SEQ ID NO:55 is represented by SEQ ID NO:56. […] The complement of SEQ ID NO:57 is represented by SEQ ID NO:58. […] The complement of SEQ ID NO:59 is represented by SEQ ID NO:60. […] The complement of SEQ ID NO:61 is represented by SEQ ID NO:62. […] The complement of SEQ ID NO:77 is represented by SEQ ID NO:78. […] The complement of SEQ ID NO:87 is represented by SEQ ID NO:88. […] The complement of SEQ ID NO:99 is represented by SEQ ID NO:100. […] The complement of SEQ ID NO:101 is represented by SEQ ID NO:102. […] The complement of SEQ ID NO:103 is represented by SEQ ID NO:104. […] The complement of SEQ ID NO:105 is represented by SEQ ID NO: 106. […] The complement of SEQ ID NO:107 is represented by SEQ ID NO:108. […] The complement of SEQ ID NO:109 is represented by SEQ ID NO:110. […] The complement of SEQ ID NO:111 is represented by SEQ ID NO:112. […] The complement of SEQ ID NO:113 is represented by SEQ ID NO:114. […] The complement of SEQ ID NO:115 is represented by SEQ ID NO:116. […] The complement of SEQ ID NO:117 is represented by SEQ ID NO:118.

Molecule	HIV-suppressive activity of the GSE and active orientation
CF-528: GSE, SEQ ID NO:43, sense; GTP binding protein gene (sense AGTGCTTTAACGATGTCACAGCTATCATTTACGTCGCAGCCTGCAGTAGCTACAACATG; chemistry not fully specified; listed as Homo sapiens)	interferes with HIV infection in the sense orientation
CF-332: GSE, SEQ ID NO:33, antisense; lymphocyte-specific protein 1 gene (antisense AACACCCATAGTAGGCCTAAAAGCAGCCACCAATTAAGAAAGC; listed as Homo sapiens)	interferes with HIV replication as an antisense molecule
CF-537: GSE, SEQ ID NO:25, sense; human bone morphogenic protein-1 gene (sense GGTCCACCATGGCCCTGCTGCACTCCGGCCGCGTCCTCCCCGGGATCGCCGCCGCCT; chemistry not fully specified; listed as Homo sapiens)	interferes with the HIV life cycles in the sense orientation
CF-321: GSE, SEQ ID NO:29, sense; rat guanine nucleotide releasing protein gene (sense AGTTCCTTTTACTTTTTAATCTTTCCTTAAAGCACGCCTGTGTTGGGCTAACGA; listed as Homo sapiens)	interferes with HIV replication in the sense orientation
B1	suppresses HIV infection as a sense molecule
B2	suppresses HIV infection as an antisense molecule
B3	suppresses HIV infection as a sense molecule
B4	selected in CEM-ss cells
B5	suppresses HIV infection as an antisense molecule
B6	suppresses HIV infection as a sense molecule
B7	suppresses HIV infection as an antisense molecule
B8	suppresses HIV infection as a sense molecule
B9	suppresses HIV infection as an antisense molecule
B10	interferes with HIV replication as an antisense molecule
B11	interferes with HIV replication as an antisense molecule
B12	interferes with HIV replication as an antisense molecule
B13	suppresses HIV infection as an antisense molecule
B14	suppresses HIV infection as a sense molecule
